Like-named read-outs stand apart in the source and are kept apart here.
How the values were obtained:
[1] = target: Recombinant human tropoelastin lacking domain 26A (human); assay: ELISA
[2] = target: Recombinant human tropoelastin lacking domain 26A (human); assay: SPR
[3] = target: Full-length human fibulin-5 (residues 42–448) (human) (UniProt Q9UBX5); assay: ELISA
[4] = target: Human fibrillin-1 N-terminal fragment PF1, encoded by exons 1–11 (residues 31–489) (human) (UniProt P35555); assay: ELISA
[5] = target: Full-length human fibulin-5 (residues 42–448) (human) (UniProt Q9UBX5); assay: ELISA; remark: listed apart in the source
[6] = target: Human fibrillin-1 fragment PF2 (human) (UniProt P35555); assay: ELISA
[7] = target: PF1 variant with the Marfan mutation R62C (human, UniProt P35555 31-489, R62C); assay: ELISA
[8] = target: PF1 variant with the Marfan mutation T101A (human, UniProt P35555 31-489, T101A); assay: ELISA
[9] = target: PF1 variant with the Marfan mutation S115C (human, UniProt P35555 31-489, S115C); assay: ELISA
[10] = target: Recombinant human tropoelastin lacking domain 26A (human); assay: ELISA; remark: listed apart in the source
SEC-MALS = target: the molecule itself; assay: SEC-MALS

Chain of PF1 variant with the Marfan mutation S115C (P35555 31-489 S115C): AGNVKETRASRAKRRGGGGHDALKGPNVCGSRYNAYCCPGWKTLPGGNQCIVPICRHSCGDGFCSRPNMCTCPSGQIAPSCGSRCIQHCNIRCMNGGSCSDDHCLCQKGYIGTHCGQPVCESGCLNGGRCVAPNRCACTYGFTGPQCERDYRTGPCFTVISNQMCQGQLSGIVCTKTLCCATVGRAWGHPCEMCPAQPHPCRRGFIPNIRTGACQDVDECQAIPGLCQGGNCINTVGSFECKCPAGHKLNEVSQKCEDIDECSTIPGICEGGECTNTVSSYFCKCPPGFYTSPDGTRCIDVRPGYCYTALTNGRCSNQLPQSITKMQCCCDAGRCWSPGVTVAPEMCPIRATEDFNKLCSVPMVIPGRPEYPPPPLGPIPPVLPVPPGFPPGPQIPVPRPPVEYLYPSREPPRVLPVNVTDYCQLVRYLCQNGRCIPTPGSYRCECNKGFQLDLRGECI
Chain of PF1 variant with the Marfan mutation R62C (P35555 31-489 R62C): as the sequence (P35555 31-489 S115C) above, with R32C, C85S counted along it
Chain of PF1 variant with the Marfan mutation T101A (P35555 31-489 T101A): as the sequence (P35555 31-489 S115C) above, with T71A, C85S counted along it
Chain of Human fibrillin-1 N-terminal fragment PF1, encoded by exons 1–11 (residues 31–489) (human) (P35555 31-489): as the sequence (P35555 31-489 S115C) above, with C85S counted along it
Chain of Human fibrillin-1 fragment PF2 (human) (P35555 45-2731): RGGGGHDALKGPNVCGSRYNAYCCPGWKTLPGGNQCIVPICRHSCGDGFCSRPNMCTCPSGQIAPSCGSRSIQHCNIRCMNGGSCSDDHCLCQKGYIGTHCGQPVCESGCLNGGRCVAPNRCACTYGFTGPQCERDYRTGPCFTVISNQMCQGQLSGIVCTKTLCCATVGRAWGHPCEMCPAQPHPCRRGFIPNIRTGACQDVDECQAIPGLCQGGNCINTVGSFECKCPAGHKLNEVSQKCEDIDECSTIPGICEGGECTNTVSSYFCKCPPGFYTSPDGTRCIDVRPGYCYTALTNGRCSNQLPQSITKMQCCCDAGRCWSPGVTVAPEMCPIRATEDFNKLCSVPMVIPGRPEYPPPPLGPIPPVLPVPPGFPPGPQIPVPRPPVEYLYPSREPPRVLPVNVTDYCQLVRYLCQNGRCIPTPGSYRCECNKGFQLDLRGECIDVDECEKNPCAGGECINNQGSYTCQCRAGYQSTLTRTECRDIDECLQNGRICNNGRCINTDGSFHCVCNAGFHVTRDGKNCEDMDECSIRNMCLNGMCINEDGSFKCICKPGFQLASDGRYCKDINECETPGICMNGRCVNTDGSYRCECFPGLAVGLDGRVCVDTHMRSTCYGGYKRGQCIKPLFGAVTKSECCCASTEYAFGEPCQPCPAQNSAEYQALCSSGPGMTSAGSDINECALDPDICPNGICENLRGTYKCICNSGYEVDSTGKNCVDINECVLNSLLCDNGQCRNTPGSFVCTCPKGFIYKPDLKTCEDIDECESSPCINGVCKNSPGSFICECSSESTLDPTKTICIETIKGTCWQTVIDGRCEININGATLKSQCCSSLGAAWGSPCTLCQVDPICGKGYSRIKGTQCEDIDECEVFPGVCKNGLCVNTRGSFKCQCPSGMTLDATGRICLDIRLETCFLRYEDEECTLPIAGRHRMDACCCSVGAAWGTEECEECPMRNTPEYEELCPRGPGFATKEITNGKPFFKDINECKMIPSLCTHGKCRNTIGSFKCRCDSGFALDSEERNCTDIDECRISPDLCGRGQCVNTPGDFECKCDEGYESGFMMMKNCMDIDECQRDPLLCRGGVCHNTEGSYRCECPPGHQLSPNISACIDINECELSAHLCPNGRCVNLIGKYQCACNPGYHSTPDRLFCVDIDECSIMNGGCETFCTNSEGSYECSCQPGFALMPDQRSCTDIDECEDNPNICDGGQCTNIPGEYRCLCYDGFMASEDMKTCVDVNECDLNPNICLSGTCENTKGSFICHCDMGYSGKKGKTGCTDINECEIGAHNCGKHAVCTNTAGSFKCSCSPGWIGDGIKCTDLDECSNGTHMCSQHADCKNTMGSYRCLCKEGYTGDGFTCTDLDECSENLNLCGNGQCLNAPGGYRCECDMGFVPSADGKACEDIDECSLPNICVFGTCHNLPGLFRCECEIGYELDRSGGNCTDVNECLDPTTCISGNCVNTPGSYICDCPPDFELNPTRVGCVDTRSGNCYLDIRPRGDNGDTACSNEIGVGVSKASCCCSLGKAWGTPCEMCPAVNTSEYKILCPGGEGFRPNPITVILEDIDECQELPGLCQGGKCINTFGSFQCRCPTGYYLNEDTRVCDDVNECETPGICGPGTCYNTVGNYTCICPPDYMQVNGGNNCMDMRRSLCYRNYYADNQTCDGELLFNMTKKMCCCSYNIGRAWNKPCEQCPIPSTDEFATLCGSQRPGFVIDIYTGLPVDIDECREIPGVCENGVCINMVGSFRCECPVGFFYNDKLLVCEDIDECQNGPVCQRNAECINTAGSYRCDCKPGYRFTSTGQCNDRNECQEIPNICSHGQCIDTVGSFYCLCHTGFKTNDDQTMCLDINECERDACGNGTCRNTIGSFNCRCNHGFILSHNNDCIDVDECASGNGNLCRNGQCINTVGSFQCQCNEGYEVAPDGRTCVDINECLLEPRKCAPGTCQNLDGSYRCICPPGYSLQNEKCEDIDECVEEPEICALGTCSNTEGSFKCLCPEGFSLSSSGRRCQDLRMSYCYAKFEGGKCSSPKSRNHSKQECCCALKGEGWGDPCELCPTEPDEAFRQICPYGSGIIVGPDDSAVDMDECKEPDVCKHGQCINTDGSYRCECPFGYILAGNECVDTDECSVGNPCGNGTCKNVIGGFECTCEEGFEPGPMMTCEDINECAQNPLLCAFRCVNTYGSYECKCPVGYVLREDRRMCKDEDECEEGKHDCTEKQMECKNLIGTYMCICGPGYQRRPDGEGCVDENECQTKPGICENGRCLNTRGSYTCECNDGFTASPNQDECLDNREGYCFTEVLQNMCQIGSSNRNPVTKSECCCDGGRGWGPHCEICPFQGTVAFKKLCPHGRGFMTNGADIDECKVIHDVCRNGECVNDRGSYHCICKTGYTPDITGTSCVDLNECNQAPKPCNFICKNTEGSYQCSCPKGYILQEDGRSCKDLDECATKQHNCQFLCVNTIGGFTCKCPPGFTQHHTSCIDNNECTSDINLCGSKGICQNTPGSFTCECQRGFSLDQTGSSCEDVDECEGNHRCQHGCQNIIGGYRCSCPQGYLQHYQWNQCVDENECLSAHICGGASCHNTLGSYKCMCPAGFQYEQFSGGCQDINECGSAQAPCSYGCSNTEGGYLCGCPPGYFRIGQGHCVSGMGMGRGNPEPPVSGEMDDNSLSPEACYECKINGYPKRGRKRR

Fibulin-5 domain pair F5-E4+5 (residues 207–287) (from UniProt Q9UBX5 207-287) (domain or fragment)
Kd [1]: 452 nM

Full-length fibulin-5 with the cutis laxa mutation C217R (from UniProt Q9UBX5 42-448) (natural protein)
Kd [2]: 865 nM
koff [2]: 0.0046 s⁻¹
kon [2]: 8400 M⁻¹ s⁻¹

Full-length fibulin-5 with the cutis laxa mutation S227P (from UniProt Q9UBX5 42-448) (natural protein)
Kd [2]: 3420 nM
koff [2]: 0.0093 s⁻¹
kon [2]: 20000 M⁻¹ s⁻¹

Full-length human fibulin-5 (residues 42–448) (from UniProt Q9UBX5 42-448) (natural protein)
Kd [2]: 64 nM
koff [2]: 0.0013 s⁻¹
kon [2]: 44000 M⁻¹ s⁻¹

Human full-length lysyl oxidase (from UniProt P28300 22-417) (enzyme)
Kd [3]: 338 nM
Kd [4]: 26 nM
Kd [5]: 304 nM
Kd [1]: 49 nM

Full-length human fibulin-4 (residues 26–418) (from UniProt O95967 26-443) (natural protein)
Kd [1]: 131 nM
Kd [6]: 194 nM

B1: Fibulin-5 domain pair F5-E6FC (residues 288–448) (domain or fragment)
chain: DINECEHRNHTCNLQQTCYNLQGGFKCIDPIRCEEPYLRISDNRCMCPAENPGCRDQPFTILYRDMDVVSGRSVPADIFQMQATTRYPGAYYIFQIKSGNEGREFYMRQTGPISATLVMTRPIKGPREIQLDLEMITVNTVINFRGSSVIRLRIYVSQYPF
modifications: biotinylated where it was the soluble ligand of a solid phase assay
binding result [7]: binds
binding result [8]: binds
binding result [9]: binds
Kd [10]: 965 nM

B2: N-terminal four domains of fibulin-4 (residues 26–217) (domain or fragment)
chain: SPQDSEEPDSYTECTDGYEWDPDSQHCRDVNECLTIPEACKGEMKCINHYGGYLCLPRSAAVINDLHGEGPPPPVPPAQHPNPCPPGYEPDDQDSCVDVDECAQALHDCRPSQDCHNLPGSYQCTCPDGYRKIGPECVDIDECRYRYCQHRCVNLPGSFRCQCEPGFQLGPNNRSCVDVNECDMGAPCEQRCFNSYGTFLCRCHQGYELHRDGFSCS
modifications: biotinylated where it was the soluble ligand of a solid phase assay
stoichiometry N (SEC-MALS): 2

B3: Fibulin-5 domain pair F5-E1+2 (residues 42–167) (domain or fragment)
chain: DIDECRTIPEACRGDMMCVNQNGGYLCIPRTNPVYRGPYSNPYSTPYSGPYPAAAPPLSAPNYPTISRPLICRFGYQMDESNQCVDVDECATDSHQCNPTQICINTEGGYTCSCTDGYWLLEGQCL
modifications: biotinylated where it was the soluble ligand of a solid phase assay
binding result [7]: binds
binding result [8]: binds
binding result [9]: binds
Kd [10]: 332 nM

B4: Full-length human fibulin-4 (residues 26–418) (natural protein)
chain: SPQDSEEPDSYTECTDGYEWDPDSQHCRDVNECLTIPEACKGEMKCINHYGGYLCLPRSAAVINDLHGEGPPPPVPPAQHPNPCPPGYEPDDQDSCVDVDECAQALHDCRPSQDCHNLPGSYQCTCPDGYRKIGPECVDIDECRYRYCQHRCVNLPGSFRCQCEPGFQLGPNNRSCVDVNECDMGAPCEQRCFNSYGTFLCRCHQGYELHRDGFSCSDIDECSYSSYLCQYRCINEPGRFSCHCPQGYQLLATRLCQDIDECESGAHQCSEAQTCVNFHGGYRCVDTNRCVEPYIQVSENRCLCPASNPLCREQPSSIVHRYMTITSERSVPADVFQIQATSVYPGAYNAFQIRAGNSQGDFYIRQINNVSAMLVLARPVTGPREYVLDLEMVTMNSLMSYRASSVLRLTVFVGAYTF
modifications: biotinylated (sulfosuccinimidyl 2-(biotinamido)-ethyl-1,3-dithiopropionate) where it was the soluble ligand of a solid phase assay
stoichiometry N (SEC-MALS): 2
